Assay results as given in US20230140868A1, “COMPOSITIONS AND METHODS FOR TREATING CANCER” (Alpha Beta Holdings, LLC, priority 2020, published 2023).

How the values were obtained:
[1] = tested on: HCC827-R18 erlotinib-resistant tumor cells; assay: Re-sensitization of erlotinib-resistant HCC827-R18 xenografts (FIG. 1); format: in vivo, nu/nu mice; details: LM609 i.p., 10 mg/kg, twice/week with erlotinib 6.25 mg/kg vs erlotinib alone
Protocol: HCC827-R18 and PC9-R4L erlotinib-resistant tumor cells generated as reported in Wettersten et al., Cancer Res. 79:5048 (2019), incorporated by reference herein in its entirety, were injected to form subcutaneous flank tumors in nu/nu recipient mice. […] Tumor dimensions were measured biweekly and volume calculated as […].
To generate erlotinib-resistant tumors […], HCC827 or PC9 human lung cancer cells (5×10^6 tumor cells in 100 μl of PBS) were subcutaneously injected to the right flank of female nu/nu mice (Charles River, 088, 8-10 weeks old) and tumors were measured with calipers twice per week. Animals with a tumor volume of 100-200 mm^3 were randomly assigned into groups treated with combinations of Captisol (oral, six times/week) or erlotinib (oral, 6.25 mg/kg, six times/week). For each of the individual tumors shown in Figure S3 of Wettersten et al., Cancer Res. 79:5048 (2019)}, vehicle-treated erlotinib sensitive (HCC827-P and PC9-P) and erlotinib-resistant (HCC827-R18 and PC9-R4L) cells were isolated. A gain of αvβ3 expression on the cell surface of the erlotinib-resistant tumor cells was confirmed by flow cytometry.

integrin αvβ3 = integrin αvβ3 (Homo sapiens, UniProt P05106+P06756); details: human cells; Cheresh, 1987; cited from earlier work
[2] = tested on: αvβ3-expressing tumor cell lines; assay: Macrophage-mediated killing: Fc dependence, ADCC vs ADCP vs direct killing; format: cell-based
Protocol: (§1) We used the isolated macrophages as effector cells in an antibody-dependent cellular-cytotoxicity (ADCC) assay. […] The ratio of dead target cells (PI-positive) to the total target cell population (CFSE-positive) was calculated as described (Bracher, 2007).
These findings were reported in FIGS. 3C-3D of Wettersten et al., Cancer Res. 79:5048 (2019).
Monoclonal antibodies can direct macrophages to induce tumor cell killing through two primary mechanisms, processes known as antibody-dependent cellular phagocytosis (ADCP) and antibody-dependent cellular cytotoxicity (ADCC). […] The lack of an ADCP response is consistent with high tumor cell expression of CD47, the “don't eat me” signal (Chao, 2012) that tumor cells often exploit to evade phagocytosis.

tumor cells [3] = assay: In vitro ADCC with mouse bone marrow derived macrophages (LM609); format: cell-based; details: effector: BMDM isolated from healthy mice
Protocol: Mouse bone marrow-derived macrophages (BMDMs) were aseptically harvested from euthanized 8-10 week-old female C57BL/6 mice by flushing leg bones with RPMI, filtering through 70 μm cell strainers, and incubating in Red Blood Cell Lysing Buffer Hybri-Max™ (Sigma, R7757). Cells were incubated with mouse M-CSF (Peprotech, 315-02) for 7 days before ADCC assays.
as §1

[4] = tested on: αvβ3-expressing human pancreatic xenograft tumors; assay: αvβ3-expressing human pancreatic xenograft with or without macrophage depletion; format: in vivo, nude mice
Excerpt: Successful depletion of macrophages by clodronate treatment was confirmed by staining tumor sections for the mouse macrophage marker F4/80.

tumor cells [5] = assay: In vitro ADCC with human PBMCs; format: cell-based; details: effector: PBMCs isolated from human blood
Protocol: Human peripheral blood mononuclear cells (PBMCs) and macrophages were isolated using leukoreduction system chambers (LRSC) purchased from the San Diego Blood Bank. PBMCs were isolated from LRSC using Histopaque-1083 (Sigma, 10831) following the manufacturer's protocol. To obtain macrophages, PBMCs were incubated in tissue culture plates with human M-CSF (Peprotech, 300-25) for 5 days.
as §1
To our surprise, LM609-mediated ADCC was not achieved with mouse NK cells or peripheral blood mononuclear cells (PBMCs) isolated from human blood, immune effector cell types to which antibodies are commonly engineered for optimal binding (Listinsky, 2013; Yu, 2017). In fact, NK cells are not correlated with β3 expression in tumors. These findings were reported in FIG. 3E of Wettersten et al., Cancer Res. 79:5048 (2019).

[6] = additional αvβ3-expressing tumor cell lines: lung, pancreas, brain, kidney cancer

integrin αvβ3, sequence (P06756 31-889 limits assumed): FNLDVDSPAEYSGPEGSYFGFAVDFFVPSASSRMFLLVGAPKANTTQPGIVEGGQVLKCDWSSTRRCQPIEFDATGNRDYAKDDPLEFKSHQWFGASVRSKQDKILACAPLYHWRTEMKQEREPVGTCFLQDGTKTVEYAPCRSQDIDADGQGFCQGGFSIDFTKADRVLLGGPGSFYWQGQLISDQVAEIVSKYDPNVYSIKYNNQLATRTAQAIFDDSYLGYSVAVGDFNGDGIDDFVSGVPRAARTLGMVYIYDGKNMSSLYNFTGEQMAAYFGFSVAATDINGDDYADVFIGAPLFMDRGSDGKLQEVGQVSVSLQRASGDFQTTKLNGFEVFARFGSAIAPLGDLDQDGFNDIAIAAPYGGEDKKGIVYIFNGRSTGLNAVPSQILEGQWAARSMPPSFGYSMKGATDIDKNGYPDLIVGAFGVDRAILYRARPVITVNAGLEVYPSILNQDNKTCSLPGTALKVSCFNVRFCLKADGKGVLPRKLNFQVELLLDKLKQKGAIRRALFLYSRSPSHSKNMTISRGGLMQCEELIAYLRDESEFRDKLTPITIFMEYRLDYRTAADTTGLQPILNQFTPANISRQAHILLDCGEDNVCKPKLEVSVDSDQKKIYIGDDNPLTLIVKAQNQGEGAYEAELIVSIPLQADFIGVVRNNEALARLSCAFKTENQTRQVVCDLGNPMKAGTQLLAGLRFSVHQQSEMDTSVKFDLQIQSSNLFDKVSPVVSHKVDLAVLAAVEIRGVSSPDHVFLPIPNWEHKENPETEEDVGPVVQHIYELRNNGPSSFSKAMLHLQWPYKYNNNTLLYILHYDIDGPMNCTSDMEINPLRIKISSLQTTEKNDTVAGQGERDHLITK
integrin αvβ3, sequence (P06756 891-1048 limits assumed): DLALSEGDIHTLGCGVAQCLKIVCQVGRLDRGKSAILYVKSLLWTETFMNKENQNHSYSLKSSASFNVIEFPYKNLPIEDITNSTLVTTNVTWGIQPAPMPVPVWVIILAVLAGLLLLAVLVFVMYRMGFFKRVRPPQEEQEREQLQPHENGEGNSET
integrin αvβ3, sequence (P05106 27-788): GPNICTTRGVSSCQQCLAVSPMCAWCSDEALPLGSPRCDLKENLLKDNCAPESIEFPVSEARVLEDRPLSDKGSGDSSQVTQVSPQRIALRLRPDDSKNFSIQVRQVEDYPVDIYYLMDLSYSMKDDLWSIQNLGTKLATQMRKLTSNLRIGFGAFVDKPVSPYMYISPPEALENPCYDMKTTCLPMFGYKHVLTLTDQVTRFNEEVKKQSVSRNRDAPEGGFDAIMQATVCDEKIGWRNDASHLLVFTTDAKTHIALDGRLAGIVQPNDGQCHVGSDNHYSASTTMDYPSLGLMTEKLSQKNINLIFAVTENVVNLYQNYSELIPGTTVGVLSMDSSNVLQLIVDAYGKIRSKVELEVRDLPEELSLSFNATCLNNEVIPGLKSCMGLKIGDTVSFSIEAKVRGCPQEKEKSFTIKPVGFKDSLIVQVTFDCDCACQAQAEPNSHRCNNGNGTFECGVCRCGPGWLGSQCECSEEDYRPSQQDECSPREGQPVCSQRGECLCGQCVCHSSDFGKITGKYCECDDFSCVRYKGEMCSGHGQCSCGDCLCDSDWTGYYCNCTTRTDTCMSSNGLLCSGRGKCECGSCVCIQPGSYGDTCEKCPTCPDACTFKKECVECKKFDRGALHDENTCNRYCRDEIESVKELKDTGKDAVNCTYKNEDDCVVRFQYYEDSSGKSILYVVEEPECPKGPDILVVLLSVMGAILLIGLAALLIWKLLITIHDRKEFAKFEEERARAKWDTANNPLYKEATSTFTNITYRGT

B1: LM609: mouse monoclonal IgG1K antibody that recognizes human integrin αvβ3; SEQ ID NO:11 and 12 (antibody)
heavy: MNFGLRLIFLVLTLKGVKCEVQLVESGGGLVKPGGSLKLSCAASGFAFSSYDMSWVRQIPEKRLEWVAKVSSGGGSTYYLDTVQGRFTISRDNAKNTLYLQMSSLNSEDTAMYYCARHNYGSFAYWGQGTLVTVSAAKTTPPSVYPLAPGSAAQTNSMVTLGCLVKGYFPEPVTVTWNSGSLSSGVHTFPAVLQSDLYTLSSSVTVPSSTWPSETVTCNVAHPASSTKVDKKIVPRDCGCKPCICTVPEVSSVFIFPPKPKDVLTITLTPKVTCVVVDISKDDPEVQFSWFVDDVEVHTAQTQPREEQFNSTFRSVSELPIMHQDWLNGKEFKCRVNSAAFPAPIEKTISKTKGRPKAPQVYTIPPPKEQMAKDKVSLTCMITDFFPEDITVEWQWNGQPAENYKNTQPIMDTDGSYFVYSKLNVQKSNWEAGNTFTCSVLHEGLHNHHTEKSLSHSPGK
light: MVFTPQILGLMLFWISASRGDIVLTQSPATLSVTPGDSVSLSCRASQSISNHLHWYQQKSHESPRLLIKYASQSISGIPSRFSGSGSGTDFTLSINSVETEDFGMYFCQQSNSWPHTFGGGTKLEIKRADAAPTVSIFPPSSEQLTSGGASVVCFLNNFYPKDINVKWKIDGSERQNGVLNSWTDQDSKDSTYSMSSTLTLTKDEYERHNSYTCEATHKTSTSPIVKSFNRNEC
modifications: mAb LM609-mIgG1-kappa Heavy chain; mAb LM609-mIgG1-kappa Light chain
re-sensitization of resistant tumors to erlotinib (tumor volume) [1]: able to re-sensitize resistant tumors to the growth inhibitory effects of erlotinib | recognition of integrin αvβ3 (integrin αvβ3): recognizes integrin αvβ3 on human | ADCP ([2]; FIG. 3F of Wettersten et al.): not ADCP | direct killing ([2]; FIG. 3F of Wettersten et al.): not ADCP or direct killing | ADCP [2, 6]: not ADCP | direct killing [2, 6]: not ADCP or direct killing | macrophage-mediated ADCC [2, 6]: also observed | macrophage-mediated killing ([2]; in the presence of an antibody blocking the Fc receptors CD16, CD32, and CD64): no macrophage-mediated killing | macrophage ADCC ([2]; required integrin β3 expression, FIG. 3F of Wettersten et al.): induced macrophage ADCC | ADCC (tumor cell killing) (tumor cells [3]): could also kill tumor cells | anti-tumor effect after macrophage depletion ([4]; macrophage depletion using clodronate liposomes): completely blocked | sensitivity of xenograft tumors to LM609 ([4]; reported in FIG. 2A of Wettersten et al.): highly sensitive | LM609-mediated ADCC (tumor cells [5]): not achieved
